B1: ADI-12126 (Q1E, M57S, M115L) IgG4 S228P/Kappa (antibody, V domains shown)
VH: EVQLVQSGAEVKKPGASVKVSCKASGYTFTGYYMHWVRQAPGQGLEWMGWINANSGSTNYAQKFQGRVTMTRDTSISTAYMELSRLRSDDTAVYYCARDIYDSSDQLNVWGQGTLVTVSS
VL: EIVLTQSPATLSLSPGERATLSCRASQSVSSYLAWYQQKPGQAPRLLIYDASNRATGIPARFSGSGSGTDFTLTISSLEPEDFAVYYCQQASIWPLTFGGGTKVEIKR
B2: ADI-12126 (Q1E, M57G, M115L) IgG4 S228P/Kappa (antibody, V domains shown)
VH: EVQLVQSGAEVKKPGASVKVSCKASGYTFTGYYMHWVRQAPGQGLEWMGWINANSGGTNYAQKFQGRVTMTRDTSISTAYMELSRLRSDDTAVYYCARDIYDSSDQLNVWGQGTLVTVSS
VL: B1 VL
notes: The parental residues are Q1, M57, M115
B3: ADI-12126 (Q1E, M57Y, M115L) IgG4 S228P/Kappa (antibody, V domains shown)
VH: B1 VH with S57Y
VL: B1 VL
B4: ADI-12126 (Q1E, M57A, M115L) IgG4 S228P/Kappa (antibody, V domains shown)
VH: B1 VH with S57A
VL: B1 VL
B5: ADI-12126 (Q1E, M57V, M115L) IgG4 S228P/Kappa (antibody, V domains shown)
VH: B1 VH with S57V
VL: B1 VL
B6: ADI-12126 (Q1E, M57T, M115L) IgG4 S228P/Kappa (antibody, V domains shown)
VH: B1 VH with S57T
VL: B1 VL
B7: ADI-12126 M57G/M115L (antibody, V domains shown)
VH: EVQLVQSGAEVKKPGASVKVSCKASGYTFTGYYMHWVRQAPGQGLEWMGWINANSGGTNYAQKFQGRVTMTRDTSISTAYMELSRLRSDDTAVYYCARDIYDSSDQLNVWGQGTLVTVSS
VL: B1 VL
B8: ADI-12126 M57A/M115L (antibody, V domains shown)
VH: B1 VH with S57A
VL: B1 VL

Changes are numbered by the printed parent chain. In names and notes the source's numbering stands.

The values that follow come from US20180369375A1 (Merck Sharp & Dohme, published 2018).

The target in the first experiment is T1, human LAG3-His tagged recombinant protein (human).
T1 construct: also called human LAG3-His protein; recombinant human LAG3
The experiment is described as follows: SPR, Biacore T200; antibody captured, human LAG3-His as analyte, 1:1 Langmuir fit; average. As for the experimental part: (§1) Approximately 4000 RU of […], Fragment Specific (Jackson ImmunoResearch Catalog #115-006-071, Lot 81313) was immobilized via amine coupling chemistry onto a Series S CM4 sensor chip, catalog number BR-1005-34. Human anti-human LAG3 clones were injected over the immobilized anti-human surfaces at 1 ug/mL for a capture level of 40 RU. HBS-EP+ buffer (BR-1006-69) was used as the running buffer with a flow rate of 30 μL/min.
(§2) Varying concentrations of human LAG3-His protein ranging from 0.15 nM to 18.8 nM, at a flow rate of 40 μL/min were injected over the antibody surfaces. Following each injection cycle, the Series S CM4 chip surface was regenerated using one six second injection of 10 mM Glycine pH 1.5 solution followed by an injection of 12.5 mM NaOH solution at a flow rate of 60 μL/min.
(§3) Background subtraction binding sensorgrams were used for analyzing the rate constant of association (kₐ) and dissociation (kd), and the equilibrium dissociation constant KD. The resulting data sets were fitted with a 1:1 Langmuir Binding Model using the Biacore T200 evaluation software (version 2.0).
Target sequence in this assay (P18627 23-450): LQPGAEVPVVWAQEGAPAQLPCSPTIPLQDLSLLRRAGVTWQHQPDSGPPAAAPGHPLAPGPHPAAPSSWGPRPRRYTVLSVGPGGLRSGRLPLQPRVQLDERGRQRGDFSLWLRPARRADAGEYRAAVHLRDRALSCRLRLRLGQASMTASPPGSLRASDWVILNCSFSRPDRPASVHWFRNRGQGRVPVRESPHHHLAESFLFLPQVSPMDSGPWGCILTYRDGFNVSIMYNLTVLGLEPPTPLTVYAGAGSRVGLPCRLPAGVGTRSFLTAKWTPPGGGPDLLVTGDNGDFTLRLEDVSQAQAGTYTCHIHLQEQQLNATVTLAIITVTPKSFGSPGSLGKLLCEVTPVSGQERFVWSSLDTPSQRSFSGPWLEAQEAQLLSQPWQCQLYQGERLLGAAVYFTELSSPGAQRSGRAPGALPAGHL
As to B1, the Kd amounted to 0.127 nM.

For B2, the Kd came out at 0.01 nM.

On to B3, for which the Kd is 0.033 nM.

As for B4, the Kd stood at 0.013 nM.

In the case of B5, the Kd turned out to be 0.266 nM.

For the molecule B6, the Kd was 0.066 nM.

The target of the next experiment is T2, human LAG3 (expressed on cells) (human).
T2 construct: also called Hu LAG3; human LAG3 transfectants
T2 chain: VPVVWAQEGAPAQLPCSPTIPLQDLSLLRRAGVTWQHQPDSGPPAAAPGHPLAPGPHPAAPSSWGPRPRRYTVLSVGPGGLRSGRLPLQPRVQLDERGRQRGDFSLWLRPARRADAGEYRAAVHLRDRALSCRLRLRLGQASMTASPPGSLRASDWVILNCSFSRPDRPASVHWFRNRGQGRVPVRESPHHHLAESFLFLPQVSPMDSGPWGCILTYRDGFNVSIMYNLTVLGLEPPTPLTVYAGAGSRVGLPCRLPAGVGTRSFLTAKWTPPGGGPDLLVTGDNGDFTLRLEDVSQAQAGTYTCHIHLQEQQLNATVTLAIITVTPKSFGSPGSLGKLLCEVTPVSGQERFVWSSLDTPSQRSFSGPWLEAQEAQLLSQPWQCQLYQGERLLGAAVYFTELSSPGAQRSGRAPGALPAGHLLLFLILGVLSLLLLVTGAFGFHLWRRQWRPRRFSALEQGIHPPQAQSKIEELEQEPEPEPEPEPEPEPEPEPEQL
Kind of experiment: cell-based KinExA; BaF/3 cells stably transfected with human LAG3; average of n = 1-3. As for the experimental part:
(§4) The affinities of the anti-LAG3 antibodies for human and cynomolgous monkey LAG3 were determined using a cell based Kinetic Exclusion Assay (KinExA). Cell based KinExA can be used to measure the affinity of a molecule for a binding partner on a cell surface (Rathanaswami et al. Analylitical Biochemistry 373(1): 52-60 (2008); Xie et al. J. Immunol. Methods 304 (1-2): 1-14 (2005)). In this case, BaF/3 cells were stably transfected with human or cynomolgus monkey LAG3 proteins. Transfected cells or the parental BaF/3 control cell line were grown to a density of 1.7×10⁶ to 3.2×10⁶ cells per ml at 37° C., 120 RPM, 5% CO₂, in 1×RPMI 1640 media with 10% FBS, 10 ng/ml IL-3, 5 μg/ml puromycin. Cells were concentrated, mixed with 15 pM or 150 pM antibody in cell culture media and incubated 24 to 48 hours at room temperature while rotating at 20 to 30 RPM. Cells were present at a top concentration of 2×10⁷ cells per ml (parental BaF/3 or cynomolgus LAG3 transfectants) or 1×10⁷ cells per ml (human LAG3 transfectants) and diluted in a 2-fold, 18 member series. The cells were pelleted and free antibody in the supernatant was measured using a KinExA 3200 instrument (Sapidyne, Idaho, USA). […] Antibody on the beads was labeled with 1.5 μg/ml Alexa Fluor® 647 conjugated goat anti-human (Fab′)₂ (Jackson ImmunoResearch Laboratories), washed and the fluorescent signal was read all using the KinExA™ 3200. […]
Molecule B7 gave a dissociation constant (Kd) of 0.018 nM.

On to B8, for which the Kd is 0.021 nM.

The target in the next experiment is T2, human LAG3 (expressed on cells). The experiment is described as follows: cell-based KinExA; human LAG3 on BaF/3 cells; ratio to ADI-12126.
In the case of B7, the “KD/KD ref (ref = ADI-12126)” value is 0.8.

For the molecule B8, the “KD/KD ref (ref = ADI-12126)” value amounted to 0.9.

For a further experiment the target is unchanged. Kind of experiment: cell-based KinExA; BaF/3 cells stably transfected with human LAG3; n = 3. As for the experimental part:
as §4
Background: In KinExA the mixture passes briefly over coated beads that capture the unbound partner.
Molecule B7 had a Kd of 0.013 nM.

As to B8, the dissociation constant Kd came to 0.017 nM.

The next experiment has the same target. The experiment is described as follows: cell-based KinExA; BaF/3 cells stably transfected with human LAG3; n = 1. On the procedure:
as §4
As for B7, binding was characterised by a dissociation constant (Kd) of 0.015 nM.

For B8, binding was put at a Kd of 0.017 nM.

Another experiment addresses T1, human LAG3-His tagged recombinant …. The experiment is described as follows: SPR, Biacore T200; antibody captured, human LAG3-His as analyte, 1:1 Langmuir fit; n = 1. As for the experimental part: as §1, §2, §3
For orientation: Surface plasmon resonance follows binding to a sensor surface in real time, without labels.
Target sequence in this assay (P18627 23-450): as the sequence (P18627 23-450) above
On to B1, for which the Kd came out at 0.134 nM.

On to B2, for which the Kd was found to be 0.011 nM.

With B3, the Kd came to 0.032 nM.

Take B4: the Kd was determined as 0.013 nM.

For the molecule B5, the Kd was 0.282 nM.

For the molecule B6, the dissociation constant Kd is 0.066 nM.

A further experiment concerns the target T2, human LAG3 (expressed on cells). The experiment is described as follows: cell-based KinExA; BaF/3 cells stably transfected with human LAG3; n = 2. As for the experimental part:
as §4
Turning to B7, the Kd turned out to be 0.025 nM.

In turn, B8 gave a Kd of 0.03 nM.

For the next experiment, the target named is T1, human LAG3-His tagged recombinant …. The experiment is described as follows: SPR, Biacore T200; fold against the parental antibody, as printed in this row. As for the experimental part:
as §1, §2, §3
Regarding B2, the “Fold weaker than ADI-12126 (M57, M115) IgG4 S228P/Kappa” value came out at 4.6 fold.

The next experiment has the same target. Kind of experiment: SPR, Biacore T200; antibody captured, human LAG3-His as analyte, 1:1 Langmuir fit; n = 2. As for the experimental part: as §1, §2, §3
Target sequence in this assay (P18627 23-450): as the sequence (P18627 23-450) above
Consider B1, for which the Kd is 0.119 nM.

Turning to B2, the Kd is 0.01 nM.

As for B3, the Kd worked out at 0.034 nM.

Regarding B4, the dissociation constant Kd was determined as 0.013 nM.

As to B5, the dissociation constant Kd is 0.25 nM.

Take B6: the Kd stood at 0.065 nM.

What is called Kd is the constant that tells how readily two partners part at equilibrium.
